The nanobody polyreactivity screen of Harvey et al. (2022)

Test: yeast display, Sf9 membrane polyspecificity reagent, FACS + sequencing; frameworks hold sequencing errors
Outline: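 A synthetic nanobody library was expressed on Saccharomyces cerevisiae BJ5465 by galactose induction for 36–48 hours. The library was stained for 1 hour at 4 °C with 10% biotinylated, detergent-solubilized Sf9 membrane reagent and enriched with streptavidin microbeads before FACS. Low and high (top ~1%) gates were set on anti-HA fluorescence for expression and streptavidin fluorescence for reagent binding, and each polyreactivity label reflects the gate of origin.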

Sequence	polyreactivity (PSR sort gate)
QVQLVESGGGLVQAGGSLRLSCAASGRIFRTYALGWYRQAPGKERELVAAINSGGTTYYADSVKGRFTISRDNAKNTVYLQLNSLKPEDTAVYYCNAEYYYAFLRLWYDYWGQGTQVTVSS	high polyreactivity
QVQLVESGGGLVQAGGSLRLSCAASGSTFGFYAMGWYRQAPGKERELVAVISSGDSTYYADSVKGRFTISRDNAKKTVYLQMNSLIPEDTAVDYCAKDALVIDGGGGYDYWGQGTQVTVSS	low polyreactivity
QVQLVESGGGLVQAGGSLRLSCAASGRTFYVNDMGWYRQAPGKERELVAAISYRGGSTYYADSVKGRFTISRDNAKNTVYLQMNSLKPEDTAVYYCAAELTYRYRFYYLYSMYYWGQGTQVTVSS	low polyreactivity
QVQLVESGGGLVQAGGSLRLTCAASGFISSENAMGWYRQAPGKERELVAAISSGGCTNYADSVKGRFTISRDNAKNTVYLQMNSLKEEDTAVYYCAATLPGWYNEDDSWGQGTHVTVSS	low polyreactivity
QVQLVESGGGLVQAGGSLRLSCAASGRIFRLNAMGWYRQAPGKERELVAAITVSDSSTYADSVKGRFTISRDNAKNTVYLQMNSLKPEDTAVYYCNRDTYTEYAHSWRGWSVIFDYWGQGTQVTVSS	high polyreactivity
QVQLVESGGGLVQAGGSLRLSCAASGSTFSSNAMGWYRQAPGKERELVAAISSGGSTNYADSVKGRFTISRDNAKNTVYLQMNSLKPEDTAVYYCAADRSPEYYWGQGTQVTVSS	low polyreactivity
QVQLVESGGGLVQAGGSLRISSAASGRTFFTNAKGWYRQAPGKERELVAVITYRGDSTYADSVKGRFTISRDNAKNTVYLQMNSLKPEDTAVYYCNAEFRGGRWFTYDYWGHGTQVTVSS	low polyreactivity
QVQLVEAGGGLVQAGGSLRLSCAASGRTFRWYAMGWYRQAPGKERELVAAITIGGASTYYADSVKGRFTISRDNAKNTVYLQMNSLQPEYTAVNYCNAVFVGNDYWGQGTLVTVSS	low polyreactivity
QVQLVESGGGLVQAGGSLRLSSAASGSIFWYYAMGWYRQAPGKERELVADITIRGGRTYYADSVKGRFTISRDNAKNTVYFQMNSLKPEDTAVFYCAADWEYWGFGLYDYWGQGTQVTVSS	low polyreactivity
QVQRVESGGGLVQAGGSLRISCAASGSTFITYAMGWYRQERGKERELVAASRWSGGGTYYADSVKGRFTISRDNAKNTVYVQMNSLKPEDTAVYYCAADHFNYTTGRDYWGQGTQVTVSS	low polyreactivity
QVQLVESGGGLVQAGGSLRLSCAASGSIFGYYAMGWYRQAPGKERELVAAITRGARTYYADSVKGRFTISRDNAKNTVYLQMNSLKPEDTAFYYCNRVPYYEGGNGSWGQGTQVTVSS	high polyreactivity
QVKQQESGGGLVKAGGSLRLSCAASGNISNHNDMGRYRQAPGKEREFVAGITAGGITNYADRVKGRCTISRDNAKNTVYLQMNCLKPEETAVYYCAAYADYAKSYGYWGQGTQATVSS	low polyreactivity
QVQLVESGGGLVQAGGSLRLSCAASGSTFYPYAMGWYRPAPGKERELVASITLRGSSTYYADSVKGRFTISRDNAKNTVYLQMNSLKPEDTAVYYCAKEGYLYLWRYDYWGQGTQVTVSS	high polyreactivity
QVQLVESGGGLVQAGGSLRLSCAASGSIFVTNAMGWYRQAPGKERELVAAINQGGGSTYYADSVKGRFTISRDNAKNTVYLQMNSLKPEDTAVYYCATDAPYFVPFSTNGEFGDEYWGQGTQVTVSS	low polyreactivity
QVQLVESGGGLVQAGGSLRLSCAASGSIFYSNVMGWYRQAPGKERELVASITNGGGTYYADSVKGRFTISRDNAKNTVYLQMNSLKPEDTAVYYCAADPDRTAYDYWGQGTQVTVSS	low polyreactivity
QVQLVESGGGLVQAGGSLRLSCAASGRIFYAYTMGWYRQAPGKERELVAAISGSGSTYYADSVKGRFTISRDNAKNTVYLQMNSLKPEDTAVYYCAADVTGGRKYDYWGQGTQVTVSS	low polyreactivity
QVQLVESGGGLVQAGGSLRLSCAASGIILPYYAMGWYRQAPGKERELVASISQSGSSTYYADSVKGRFTISRDNAKNTVYLQMNSLKPEDTAVYYCNAKPGSWYIRYDYWGQGTQVTVSS	low polyreactivity
QLQLVESGGGLVQAGGSLRLSSAASGIIRVNAMGWNIQAPGKQRELVATITNVGSTNYADSVKGRFTISRDNAKNTVYLQMNSLKPEDTAVYYCAAEYDGPFYSFYPEQRYYWGQGTQVTVSS	low polyreactivity
QVQLVESGGGLVQAGGSLRLSCAASGRIFWGYAMGWYRQAPGKERELVAAISSGGSTNYADSVKGRFTISRDNAKNTVYLQMNSLKPEDTAVYYCAKDHAYTSAPHQYASEYYYWGQGTQVTVSS	low polyreactivity
QVQLVESGGGLVQAGGSLRLSCAASGSTFSRYAMGWYRQAPGKERELVAAISRGGNTYYADSVKGRFTISRDNAKNTVYLQMNSLKPEDTAVYYCNRYSKLYNTMDYWGQGTQVTVSS	high polyreactivity
QVQLVESGGGLVQAGGSIRLSCAASGFIFRGNAMGWYRQAPGKERELVARISGSGDSTYYADSVKGRFTISRDNAKNTVYFQMNSQKPEATEVYDCNADVFPGVEAYDSTIEYYSWGQGTQVTVSS	low polyreactivity
QVQLVESGGGLVQAGGSLRLSCAPSGRIFHQYAMGFYRKSPGKERELVAAITWSGGSTHYADSVKGRYTISRDNAKNTVYLQLNSLKPEDTAVYYCAARKSGGLLDYWGQGTQVTVSS	low polyreactivity

Sequence	polyreactivity (PSR sort gate)
QVQLVESGGGLVQAGGSLRLSCAASGLTFHRYAMGWYRQAPGKERELVAAINYSGGRTYYADSVKGRFTISRDNAKNTLYLQMNSLKPEDTAVYYCAAPRASGYYWGQGTQVTVSS	high polyreactivity
QVQLVESGGGLVQAGGSLRLSCAASGSTFDDYAMGWYRQAPGKERELVAAINSDCGGTYYADSVKGRFTISRDNAKNTVYLQMNSLKPEDTAVYYCNVEYEDYYAQRYGYDYWGQGTQVTVSS	low polyreactivity
QAQLQESGGSLVQAGGGLRLSCAASGYISVGSVMGWYRQAPSKERELVASIDQGANTNYADSVNGRFTISRDNAKNKESLQMNSLKPEDTAVYYCATETTYIVIYWGQGTQVTVSS	low polyreactivity
QVQLVESGGGLVQAGGSLRLSCAASGFISSENAMGWYRQAPGKERELVAATSSGGSTNYADSVKGRFTISRDNAKNTVYLQMNSLKPEDTAVYYCAALFPKNLQKVGRYDYWGQGTQVTVSS	low polyreactivity
QVQLVESGGGLVQAGGSLLLSCAASGSIYVNNAMGWYRQAPGKERELVAAISRSGGSTYYADSVKGRFTISRDSAKKTVYLQMNSLKPEDTAVYYCATVHRSSTPPEFNYSGQGTQVTVSS	high polyreactivity
QVQLVESGGGLVQAGGRLRLSCAASGSIFGGNDMGWYRQPPGKERELVAAITSSGGSTYYADSVKGRFTISRDNAKNTVYLQMYSLKPEDTAVYYCNADYYGPYRDYGYWGQGTQVTVSS	low polyreactivity
QVQLVESGGGLVQAGGSLRLSCAASGSTFVENAMGWYRQAPGKERELVAAITSSGGSTYYADSVKGRFSNSRDNAMNTVYLQMNSLKPEDTSVDYCGVDYIYDDAYNYWGQGTQVTVSS	high polyreactivity
QVQLVESGGGLVQAGGSLRLSCAASGLIFYDNMGWYRQAPGKERELVAAISSSGGSTSYADSVKGRFTISRDNAKNTVYLQMNSLKPEDTAVYYCAADQYYYWYTHQSIGYDYWGQGTQVTVSS	low polyreactivity
QVQLVESGGGLVQAGGSLRLSCAASGFIFRLNAMGWYTQAPGKERELVATITSSGSTSYADSVKGRFTISRDNAKNTVYLQMNSLKPEDTAVYYCAARRLRYRYPLYSRNYWGQGTQVTVSS	high polyreactivity
QVQLVESGGGLVQAGGSLRLSCAASGSTFVYYAMGWYRQAPGKERELGAAITASGGGTYYADSVKGRFTISRDNAKNTVYLQMNSLKPEDTAVYYCNRGYDYWGQGTQVTVSS	low polyreactivity
QVQLVESGGGLVLAGGSLRLSCAASGRIFRGYAMGWYRQAPGKERELVAGITWGAGRTYYADSVKGRFTISRDNAKNTVYLQMNSLKPEDTAVYYCAAYYSQDSRRKYDYWGQGTQVSVSS	high polyreactivity
QVQLVESGGGLVQAGGSLRLSCAASGSIFYWYAMGWYRPAPGKERELVAAISYSGGSTYADSVKGRFTISRDNAKNTVYLQMNSLKPEDTAVYYCAVGYYRFGRFLGYYWGQGTQVTVSS	high polyreactivity
QVQLVESGGGLVQAGGSLRLSCAASGSIFRKNAMGWYRQAPGKERELVATISGGGSTTYADSVKGRFTISRDNAKNTVYLQMNSLKPEDTADYYCAARSTWFQIRYGYWGQGTQVTVSS	high polyreactivity
QVQLVESGGGLVQAGGSLRLSCAASGYIFKYYAKGWYRQAPGKERELVAAISWDGTDTYYADSVKGRFTISRDNAKNTVYLQMNSLIPEDTAVYYCNADYDVYGWRNYWGQGTHVTVSS	low polyreactivity
QVQLVESGGGLVQAGGSLRLSCAASGSTFKRYAMGWYRQAPGKERELVASISSGGSTNYADSVKGRFTISRDNAKNTVYLQMNSLKPEDTAVYYCATYLVTGGGLNVRYDYWGQGTQVTVSS	high polyreactivity
QVQLVESGGGLVQAGGSIRLSCADSGIIFQANAMGWYRQAPRKERELVAGISRGSSTNYADSVKGRFTISLDNAKNTVYLQMNSLKPEDTAVYYCSAGFYYRPFYGSSHSYGYWGQGTQVTVSS	low polyreactivity
QVQLVESGGGLVQAGGSLRLSCADSGIIFHEYAMGWYRQAPGKERELVASISWNDGSTYADSVKGRFTISRDNAKNTVYLQMNSLKPEDTAVYYCAADYPYYPFSSIYDYWGQGTQVTVSS	low polyreactivity
QVQLLESGGGLVQAGGSLRLSCAASVSIFPKNTMGWYIQAPGKERELVAAISKSGGSTYYADSVKGRFTISRDNAKNTVYLQMNSLKPEDTAVYYCAAALGLRSTSWGRRGGGGDYWGQGTQVTGSS	high polyreactivity
QVQLVESGGGLVQAGGSLRLICAASGNTFNVYAMVWYRHAPGKERELVAAITLSGGSTYYADSVKGRFTISRDNAKNTVYLQMNSLKPEDTAVYYCNAEDDGTDYDYWGQGTQVTVSS	low polyreactivity
QVQLVESGGCLVQAGGSLRLSCAASGSTFWPYAMGWYRQAPGKERELVAAITSSGGSTYYADSVKGRFTISRDNAKNTVYLQMNSLKPEDTEVYYCAADWSNLGAYDYWGQGTQVTVSS	low polyreactivity
QVQLVESVGGIVQAGGSLRLTCAASGSIIKRNAMGWYRQAPGKERELVATISSGDGSTRYADSVKGRFTISRDNAKNTVYLQMNSLKPEDTAVYYCARDFTYTYYRWKTPYRIGHDYWGQGTQVTVSS	low polyreactivity
